Reference: doi:10.1101/2023.12.15.571532 (bioRxiv, 2023)

B1: RelB antitoxin, recombinant His-tagged (natural protein)
chain: MAVVPLGEVRNRLSEYVAEVELTHERITITRHGHPAAVLISADDLASIEETLEVLRTPGASEAIREGLADVAAGRFVSNDEIRNRYTAR
B2: RelJ antitoxin, recombinant His-tagged (natural protein)
chain: MSISASEARQRLFPLIEQVNTDHQPVRITSRAGDAVLMSADDYDAWQETVYLLRSPENARRLMEAVARDKAGHSAFTKSVDELREMAGGEE
B3: RelF antitoxin, recombinant His-tagged (natural protein)
chain: MRILPISTIKGKLNEFVDAVSSTQDQITITKNGAPAAVLVGADEWESLQETLYWLAQPGIRESIAEADADIASGRTYGEDEIRAEFGVPRRPH

Molecular target: the molecule itself
Experiment: native gel or EMSA

Protein	binding result	stoichiometry N
B1	binds	–
B2	–	4
B3	–	4
